The results in this text go back to publication PMC8798132.

The target of the assay is HLA-DPB1 (from the recombinant plasmid pEGFP-N2-HLA-DPB1, expressed in 293T cells) (human) (UniProt P04440). Nature of the assay: flow cytometry on cells. Background: In flow cytometry, cells or beads pass a laser one at a time.
Sequence of UniProt P04440 (P04440 30-225): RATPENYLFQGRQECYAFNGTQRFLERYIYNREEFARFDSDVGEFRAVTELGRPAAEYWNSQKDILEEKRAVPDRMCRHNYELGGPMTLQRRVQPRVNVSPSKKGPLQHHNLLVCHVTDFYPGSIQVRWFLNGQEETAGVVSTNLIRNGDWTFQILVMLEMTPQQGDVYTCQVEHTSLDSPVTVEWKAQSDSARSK

As for “gp42/gHgL complex protein (from UniProt P03205 33-223; P03231 19-706; P03212 23-137)”, the HLA-DP+ gp42+ cells (%) at 20 ug gp42 protein was determined as 12.4%; the HLA-DP+ gp42+ cells (%) at 40 ug gp42 protein is 18.4%; the HLA-DP+ gp42+ cells (%) at 80 ug gp42 protein stood at 27.1%; the HLA-DPB1+ gp42+ cells (%), HLA-DPB1 recombinant plasmid group amounted to 28.9%. Moreover, the gp42+ cells (%) at 20 ug gp42 protein worked out at 14%; the gp42+ cells (%) at 40 ug gp42 protein amounted to 20.1%; the gp42+ cells (%) at 80 ug gp42 protein turned out to be 29.3%; the gp42+ cells (%), HLA-DPB1 recombinant plasmid group is 28.6%.
